Test results published in patent US20250298041A1.

Legend:
[1] = target: Recombinant LBD of GPIbα (residues 1-290), WT (human) (UniProt P07359); assay: VWF:NCo ELISA, immobilised GPIbα-LBD, 250 nM 6D12; activity/antigen ratio
[2] = target: Recombinant LBD of GPIbα (residues 1-290), WT (human) (UniProt P07359); assay: activity/antigen ratio; VWF:GPIbR ELISA on LBD-WT with 1.0 mg/mL ristocetin
[3] = target: Recombinant LBD of GPIbα (residues 1-290), WT (human) (UniProt P07359); assay: VWF:GPIbNab ELISA on LBD-WT with activating nanobodies; pdVWF as the reference
[4] = target: Recombinant LBD of GPIbα (residues 1-290), WT (human) (UniProt P07359); assay: activity/antigen ratio; VWF:GPIbNab ELISA on LBD-WT with nanobody 6C4, pdVWF as reference
[5] = target: Recombinant LBD of GPIbα (residues 1-290), WT (human) (UniProt P07359); assay: activity/antigen ratio; VWF:GPIbNab ELISA on LBD-WT with nanobody 6C11, pdVWF as reference
[6] = target: Recombinant LBD of GPIbα (residues 1-290), WT (human) (UniProt P07359); assay: activity/antigen ratio; VWF:GPIbNab ELISA on LBD-WT with nanobody 6D12, pdVWF as reference
[7] = target: Recombinant LBD of GPIbα (residues 1-290), D235Y/M239V (human) (UniProt P07359); assay: activity/antigen ratio; VWF:GPIbM ELISA on LBD-D235Y/M239V without activator
Recombinant LBD of GPIbα (residues 1-290), D235Y/M239V (human), sequence (P07359 17-306 D251Y/M255V limits assumed, form in doubt): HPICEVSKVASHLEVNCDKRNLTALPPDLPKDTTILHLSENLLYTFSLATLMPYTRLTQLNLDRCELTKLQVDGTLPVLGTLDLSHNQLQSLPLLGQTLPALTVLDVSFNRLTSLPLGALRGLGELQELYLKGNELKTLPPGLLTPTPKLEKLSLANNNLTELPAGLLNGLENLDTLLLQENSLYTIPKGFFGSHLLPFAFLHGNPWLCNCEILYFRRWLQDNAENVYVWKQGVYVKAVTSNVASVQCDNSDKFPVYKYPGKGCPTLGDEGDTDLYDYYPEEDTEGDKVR

[8] = target: Recombinant LBD of GPIbα (residues 1-290), WT (human) (UniProt P07359); assay: VWF:GPIbNab ELISA on LBD-WT with 6C4 or 6D12 (not said which gives which end); pdVWF as the reference
[9] = target: Recombinant LBD of GPIbα (residues 1-290), WT (human) (UniProt P07359); assay: VWF:GPIbNab ELISA on LBD-WT with 6C11; pdVWF as the reference

Recombinant LBD of GPIbα (residues 1-290), WT (human), sequence (P07359 17-306 limits assumed, form in doubt): as the sequence (P07359 17-306 D251Y/M255V limits assumed, form in doubt) above, with Y235D, V239M counted along it

| VWF:NCo/VWF:Ag ratio [1] | VWF:GPIbR/VWF:Ag [2] | VWF:GPIbNab/VWF:Ag ratio [3] | VWF:GPIbNab6C4/VWF:Ag [4] | VWF:GPIbNab6C11/VWF:Ag [5] | VWF:GPIbNab6D12/VWF:Ag [6] | VWF:GPIbM/VWF:Ag [7] | VWF:GPIbNab/VWF:Ag ratio [8] | VWF:GPIbNab/VWF:Ag ratio [9] | Substance |
| --- | --- | --- | --- | --- | --- | --- | --- | --- | --- |
| 1.2 | – | – | – | – | – | – | – | – | Humate P (from UniProt P04275 764-2813) (ligand) |
| 1 | 0.84 | 1 | 1.05 | 1.01 | 0.93 | – | – | – | Plasma-derived VWF (pdVWF, Alphanate) (from UniProt P04275 764-2813) (ligand) |
| 1.9 | 1.25 | – | 1.31 | – | 1.26 | 2.1 | 1.2 to 1.4 | 2.26 | recombinant VWF (rVWF, Vonvendi) (from UniProt P04275 764-2813) (ligand) |
